Experiment [1] concerns the target commercial rituximab. The experiment can be described thus: SPR. (SPR reads the build-up and loss of mass on a sensor chip optically.)
Experiment [2] deals with non-fucosylated G2 glycoform of rituximab (10). Briefly: SPR.

What is called Kd is the free concentration of one partner at which half of the binding sites on the other are occupied at equilibrium, for simple one-to-one binding.

As for “FcγRIIIa-F158 (from UniProt P08637 17-254) (receptor)”, the figures for the Kd in experiment [1] and in experiment [2] were 1.04 µM and 0.123 µM, respectively.

Take “FcγRIIb (from UniProt P31994 43-310) (receptor)”: the Kd in experiment [1] amounted to 2 µM.

(Values after article PMC3427744.)
